What was measured:
[1] = system: hepatocellular carcinoma cells; assay: Sphere formation / limiting dilution sphere analysis (self-renewal); format: cell-based, human
Procedure: Sphere formation assay—Three to five hundred cells of PLC/PRF/5, Huh7 and hepatocellular carcinoma organoids (HK-HCC P1 and HCC #23) were seeded to 24-well plates coated with poly (2-hydroxyethyl methacrylate) (polyHEMA, Sigma Aldrich). Cells were grown in 500 μl of either conditioned media or serum-free 0.25% methylcellulose (Sigma-Aldrich) DMEM/F12 medium supplemented with 4 μg/mL insulin (Sigma-Aldrich), B27 (Invitrogen) and recombinant human FABP4 (rhFABP4, Biovision) at a concentration of either 20 ng/ml or 100 ng/ml. The number of tumourspheres (diameter larger than 100 μm) was counted under microscope after 8 to 12 days.
Limiting dilution assay—Parental or shITGB1 PLC/PRF/5 and Huh7 cells were cultured in a 96-well plate coated with polyHEMA with 200 μl serum-free 0.25% methylcellulose DMEM/F12 medium supplemented with 4 μg/mL insulin, B27 and rhFABP4 when appropriate. Sphere formation was scored after 8 to 12 days under a phase contrast microscope. The frequency of sphere-forming cell was calculated accordingly using an extreme limiting dilution algorithm (ELDA).

[2] = system: hepatocellular carcinoma cells; assay: Cancer stem cell functional assays (overall); format: cell-based, human; settings: hepatocellular carcinoma cells in ADCM (FIG. 9A to 9D)
Procedure: In summary, the methods shown herein were used to evaluate the interaction between differentiated adipocytes and HCC cells using a co-culture system. The conditioned medium of the adipocytes was profiled using Orbitrap liquid chromatography mass spectrometry. The functional role of FABP4 in the regulation of liver cancer stem cells was evaluated by various cancer stem cells functional assays. In vivo functional characterization of FABP4 was performed in Fabp4 knockout mice. Molecular pathways mediating phenotypic alterations were identified using mass spectrometry, RNA sequencing analysis, and pathway analysis. The therapeutic efficacy of monoclonal neutralising antibody against FABP4 was evaluated in two mouse models, a hepatocellular carcinoma (HCC) xenograft model and a MASLD-HCC model.

[3] = limits clinical use; cited from earlier work
[4] = biological target: T1, ITGB1 (Homo sapiens, UniProt P05556); assay: Mass spectrometry / coimmunoprecipitation of FABP4 binding partner; settings: biotin-labelled rhFABP4, Huh7 membrane surface
T1 construct: endogenous in cells; host or cells: Huh7
Procedure: Biotinylation of rhFABP4 and Streptavidin capturing of membrane protein—rhFABP4 was biotin-labelled and crosslinked with sulfosuccinimidyl-2-[6-(biotinamido)-2-(p-azidobenzamido) hyxanoamido]ethyl-1,3′-ithiopropionate) (Sulfo-SBED, A39260, Thermo Fisher Scientific) according to manufacturer's instructions. In brief, 50 μg of rhFABP4 (#4504, BioVision) was incubated with 1 mg of dissolved Sulfo-SBED at room temperature for 30 minutes. The reaction mixture was desalted using Amicon® Ultra-0.5 centrifugal filter device with a 3,000 Molecular Weight Cut Off (Millipore, Germany). The desalted biotinylated rhFABP4 was incubated in PBS with adherent Huh7 cells at room temperature for 10 minutes. The cell surface proteins interacting with biotinylated rhFAPB4 was captured by the photoreactive aryl azide moiety using long wave-UV at 360 nm. The labelled proteins were isolated by NeutrAvidin Agarose slurry and reduced using Pierce™ Cell Surface Protein Biotinylation and Isolation Kit (#A44390, Thermo Fisher Scientific). The interacting rhFABP4-surface protein complex was isolated, and the disulfide bond reduced, resulting in the biotin label being transferred to the interacting proteins. […]

[5] = system: PLC/PRF/5 cells; assay: In vivo tumorigenicity assay (limiting dilution), subcutaneous engraftment of pretreated PLC/PRF/5 cells; set-up: species or system mouse (mouse (mouse (human cell xenograft) cell xenograft) cell xenograft); settings: PLC/PRF/5 pretreated with rhFABP4 at 100 ng/ml, NOD/SCID mice
Procedure: (§1) In vivo tumorigenicity assay—In vivo evaluation of tumorigenicity was performed with either male non-obese diabetic/severe combined immunodeficient (NOD/SCID) or NOD/SCID gamma mice, 4 to 6 weeks of age, by induction of tumour xenografts. Cells were suspended in 1:1 culture medium and BD Matrigel Matrix (BD Biosciences) and subcutaneously injected into the flanks of the mice, which were kept under observation. Briefly, each mouse received two injections of cells in both flanks. The cells were pretreated with either rhFABP4 (100 ng/ml) or ADCM for 24 hours, and, with their control group, were injected into NOD/SCID and NOD/SCID gamma mice, respectively. Tumours were harvested at the end of the experiment for documentation. Tumour-initiating cell frequency was calculated using Extreme Limiting Dilution Analysis (ELDA) software. No specific randomization method was used. Sample size of animals was chosen based on p-values. […] Mice were sacrificed if the percentage of body weight loss is greater than 20% including the tumour mass.

[6] = system: PI3K/AKT/β-catenin signalling; assay: Western blot of AKT/GSK3β/β-catenin signalling in hepatocellular carcinoma cells; format: cell-based, human; settings: ADCM or rhFABP4 treatment (FIG. 5D)
Source text: Western blot analysis—Whole cell lysates were extracted using either NETN buffer supplemented with protease inhibitor cocktail or direct lysis. Protein lysate was separated by SDS-polyacrylamide gel electrophoresis (SDS-PAGE) and transferred to polyvinylidene difluoride membrane (Millipore) for western blot analyses. Primary antibodies FABP4[EPR3579](1:1000, ab92501, Abcam), pAKT(Ser473) (D9E), pGSK3β(Ser9) (D3A4), AKT and β-catenin (D10A8) (1:1000, #4060S, #9322S, #9272S & #8480S, Cell Signaling Technology), GSK3β(clone 7) (1:1000, #610202, clone 7, BD Transduction Laboratories), DDK (OTI4C5) (1:1000,TA50011-100, Origene), ITGB1 (1:1000, 12594-1-AP, Proteintech) and β-ACTIN (AC-74) (1:5000, #A5316, Sigma Aldrich) were incubated at 4° C. overnight. After washing, the membrane was incubated with horseradish peroxidase-conjugated anti-mouse or rabbit antibody (GE HealthCare). The signals were visualized using the enhanced chemiluminescence method. Blot images were quantified by densitometry using ImageJ software. The protein expression was normalized to β-actin and expressed as fold change relative to respective controls.

[7] = system: hepatocellular carcinoma patient-derived organoids (HK-HCC P1 and HCC #23); assay: Hepatocellular carcinoma patient-derived organoid assays; format: cell-based, human
Source text: Hepatocellular carcinoma patient-derived organoids and culture conditions—Hepatocellular carcinoma tissue was obtained from patients undergoing hepatectomy at Queen Mary Hospital, Hong Kong. Samples were collected from patients who had not received any previous local or systemic treatment prior to operation. For organoid cultures, cells were isolated and cultured according to protocol. Hepatocellular carcinoma patient-derived organoids labelled HCC #23 was gift from Dr. Meritxell Huch of The Gudon Institute at the University of Cambridge.
Cell viability assay—Cell viability of organoid cultures treated with specified concentrations of rhFABP4 for 6 days was evaluated using CellTiter-Glo® Luminescent Cell Viability Assay (Promega) according to manufacturer's protocol.
Sphere formation assay—Three to five hundred cells of PLC/PRF/5, Huh7 and hepatocellular carcinoma organoids (HK-HCC P1 and HCC #23) were seeded to 24-well plates coated with poly (2-hydroxyethyl methacrylate) (polyHEMA, Sigma Aldrich). […] The number of tumourspheres (diameter larger than 100 μm) was counted under microscope after 8 to 12 days.
Migration and invasion assays—Migration assays were performed using polycarbonate membrane transwell inserts with pore size of 8 μm (Millipore). […] Photographs of five randomly selected fields of the fixed cells were captured and the cells were counted using ImageJ.

[8] = system: hepatocellular carcinoma cells; assay: Annexin-V apoptosis assay (drug resistance to doxorubicin or sorafenib); format: cell-based, human; settings: rhFABP4 pretreatment (FIG. 2H)
Procedure: Annexin-V apoptosis assay—Cells were stained by FITC-conjugated Annexin-V (BioVision) and propidium iodide (PI) (Invitrogen) in Annexin-V binding buffer (BD Biosciences) at room temperature for 30 minutes. Apoptosis percentage was determined using BD Accuri C6 flow cytometer and FACSDiva software (BD Biosciences).

[9] = system: hepatocellular carcinoma cells; assay: Flow cytometric analysis of liver CSC markers; format: cell-based, human; settings: rhFABP4 20 ng/ml and 100 ng/ml (FIG. 2F)
Procedure: Flow cytometric analysis—Cells were stained by Phycoerythrin (PE)-conjugated CD47 and CD90 antibodies (#536046 & #555596, BD Biosciences) in PBS with 2% FBS at 4° C. for 30 to 60 minutes. Isotype-matched mouse immunoglobulins served as controls. Samples were analysed using BD Accuri C6 flow cytometer and FACSDiva software (BD Biosciences).

[10] = system: Huh7 cells; assay: In vivo tumorigenicity assay (limiting dilution), subcutaneous engraftment of pretreated Huh7 cells; set-up: species or system mouse xenograft; settings: Huh7 pretreated with rhFABP4 at 100 ng/ml, NOD/SCID mice
Procedure: as §1

[11] = system: β-catenin; assay: Beta-catenin TCF binding luciferase (TOP/FOP) reporter assay; format: cell-based, human; settings: ADCM or rhFABP4 for 24 hours (FIG. 5E)
Source text: Beta-catenin TCF binding luciferase reporter assay—β-catenin activity was examined using luciferase reporter assay of TCF/LEF-dependent transcription (TOP/FOPFLASH reporter assay). Either firefly luciferase pSuper8XTOPflash or pSuper8XFOPflash constructs (gifts from Dr. Moon R, University of Washington, USA), together with Renilla luciferase construct pRL-CMV (Promega, Madison, WI, USA) for normalization of transfection efficiency, were transfected using Lipofectamine 2000. Luciferase activities were assayed using Dual-Luciferase Reporter Assay System (Promega) according to manufacturer's protocol.

[12] = system: hepatocellular carcinoma cells; assay: Migration and invasion transwell assays; format: cell-based, human; settings: rhFABP4 (FIG. 2G)
Procedure: Migration and invasion assays—Migration assays were performed using polycarbonate membrane transwell inserts with pore size of 8 μm (Millipore). Invasion assays were performed using self-coated Matrigel (BD Biosciences) transwell inserts. Hepatocellular carcinoma cell lines (PLC/PRF/5 and Huh7) or patient-derived organoids (HK-HCC P1 and HCC #23) in serum-free medium were seeded in upper chamber, while the lower chamber was supplemented with either ADCM or 100 ng/mL rhFABP4 in serum-free medium as a chemoattractant. Serum-free DMEM was used as a negative control. Cells were incubated in humidified incubation at 37° C. for 48 hours. The transwell membranes were fixed with methanol and stained with 1% crystal violet. The membranes were cleaned and air-dried. Photographs of five randomly selected fields of the fixed cells were captured and the cells were counted using ImageJ.

T1 sequence (P05556 21-798): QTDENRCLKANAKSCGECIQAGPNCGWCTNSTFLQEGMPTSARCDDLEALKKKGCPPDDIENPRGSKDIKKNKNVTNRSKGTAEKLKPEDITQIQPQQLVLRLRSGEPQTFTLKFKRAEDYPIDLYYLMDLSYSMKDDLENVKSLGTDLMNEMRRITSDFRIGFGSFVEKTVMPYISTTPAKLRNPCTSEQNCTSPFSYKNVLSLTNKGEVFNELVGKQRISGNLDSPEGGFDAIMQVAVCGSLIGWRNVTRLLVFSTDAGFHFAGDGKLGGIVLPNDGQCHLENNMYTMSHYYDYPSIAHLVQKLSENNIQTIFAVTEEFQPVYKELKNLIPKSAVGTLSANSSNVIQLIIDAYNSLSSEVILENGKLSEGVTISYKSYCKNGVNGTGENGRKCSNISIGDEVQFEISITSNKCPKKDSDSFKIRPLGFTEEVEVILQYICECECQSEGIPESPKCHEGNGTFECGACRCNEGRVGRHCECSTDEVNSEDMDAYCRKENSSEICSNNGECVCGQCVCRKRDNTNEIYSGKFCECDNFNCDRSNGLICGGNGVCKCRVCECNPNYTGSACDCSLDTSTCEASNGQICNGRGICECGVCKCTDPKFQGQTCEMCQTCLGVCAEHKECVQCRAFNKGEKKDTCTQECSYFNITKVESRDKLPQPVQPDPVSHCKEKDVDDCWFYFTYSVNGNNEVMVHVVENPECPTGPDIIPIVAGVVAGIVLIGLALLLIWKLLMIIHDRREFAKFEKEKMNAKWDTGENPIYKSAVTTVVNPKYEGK

## CCc1c(-c2ccccc2)c(-c2ccccc2)nn1-c1ccccc1-c1cccc(OCC(=O)O)c1 [BMS-309403]
[1]; PLC/PRF/5, ADCM, inhibitor at 1 μM
  Enhancing self-renewal ability of ADCM (tumoursphere formation): suppressed
[2]
  Effects of ADCM on liver cancer stem cell properties: attenuation
[3]
  Side effects: acute cardiac depressant effect

B1: rhFABP4: recombinant human FABP4 protein (Biovision) (protein, UniProt P15090 2-132, looked up)
Fatty acid-binding protein, …: CDAFVGTWKLVSSENFDDYMKEVGVGFATRKVAGMAKPNMIISVNGDVITIKSESTFKNTEISFILGQEFDEVTADDRKVKSTITLDGGVLVHVQKWDGKSTTIKRKREDDKLVVECVMKGVTSTRVYERA
[4]
  Interaction with membrane receptor ITGB1: directly interacts
[1]; rhFABP4 20 ng/ml and 100 ng/ml (FIG. 2D)
  Self-renewal (sphere formation): promote
[5]; extreme limiting dilution
  Estimated CSC frequency: 1/2108
[5]; subcutaneous, 1 × 10^3 cells
  Tumor incidence rate, 1 × 10^3 cells: 3/5
[5]; subcutaneous, 5 × 10^3 cells
  Tumor incidence rate, 5 × 10^3 cells: 4/5
[6]
  AKT phosphorylation at Ser473: activated
  GSK3β phosphorylation at Ser9: inactivation
  Total β-catenin: accumulation
[7]; rhFABP4 (FIG. 4B)
  Self-renewal of patient-derived organoids: confer self-renewal
[7]; rhFABP4, 6 days, CellTiter-Glo (FIG. 4C)
  Size of organoids and their proliferative rate: increase
[8]
  Resistance to doxorubicin and sorafenib treatment: promote
[9]
  Expression of liver CSC markers: promote
[10]; extreme limiting dilution
  Estimated CSC frequency: 1/3404
[10]; subcutaneous, 1 × 10^3 cells
  Tumor incidence rate, 1 × 10^3 cells: 3/5
[10]; subcutaneous, 1 × 10^4 cells
  Tumor incidence rate, 1 × 10^4 cells: 4/5
[10]; subcutaneous, 5 × 10^3 cells
  Tumor incidence rate, 5 × 10^3 cells: 4/5
[11]
  Transactivation of β-catenin (TOP/FOP reporter): enhanced
[12]
  Cell migration and invasion: promote

Reference: US20250326825A1, “ANTI-FABP4 ANTIBODIES AND THEIR USES” (THE HONG KONG POLYTECHNIC UNIVERSITY, priority 2024, published 2025)
